# T1: Mouse PD-1 extracellular domain, hFc tag (mouse, UniProt Q02242 25-169)
# T1 construct: extracellular domain; also called mPro1.ECD.hFc; not shown: human Fc tag at C-terminus
# T1 sequence (looked up): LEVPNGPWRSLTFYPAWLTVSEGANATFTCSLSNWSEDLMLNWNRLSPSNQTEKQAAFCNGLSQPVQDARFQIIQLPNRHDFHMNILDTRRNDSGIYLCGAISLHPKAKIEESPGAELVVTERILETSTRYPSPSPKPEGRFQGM
# What was measured:
# Experiment in all cases: SPR Biacore 8K; PD-1-hFc captured on anti-human Fc chip, VHH injected; 1:1 fit
# [1] = target: T2, Human PD-1 extracellular domain, hFc tag (human, UniProt Q15116 25-170)
# T2 construct: extracellular domain; also called hPro1.ECD.hFc; not shown: human Fc tag at C-terminus
# T2 sequence (Q15116 25-170): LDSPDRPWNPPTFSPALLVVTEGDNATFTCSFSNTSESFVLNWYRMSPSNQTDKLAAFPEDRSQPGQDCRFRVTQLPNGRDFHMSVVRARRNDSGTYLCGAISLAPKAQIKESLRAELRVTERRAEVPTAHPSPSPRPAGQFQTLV
# Experimental: (§1) To screen WBP3056 VHH antibodies from affinity maturation, koff to hPro1.ECD.hFc, mPro1.ECD.hFc and cynoPro1.ECD.hFc (AcrobioSystems) was detected by SPR assay using Biacore 8K. hPro1.ECD.hFc, mPro1.ECD.hFc or cynoPro1.ECD.hFc (AcrobioSystems) was captured on an anti-human IgG Fc antibody immobilized CM5 sensor chip. Each VHH antibody was injected over the sensor chip at a flow rate of 30 uL/min for an association phase of 120 s, followed by 150 s dissociation. The association and dissociation curve was fit to a 1:1 model using Langmuir analysis.
# [2] = target: T1, Mouse PD-1 extracellular domain, hFc tag
# Experimental: as §1
# [3] = target: T3, Cynomolgus PD-1 extracellular domain, hFc tag (cynomolgus, UniProt B0LAJ3 25-170)
# T3 construct: Bought; also called cynoPro1.ECD.hFc; cyno PD-1 ECD protein
# T3 sequence (B0LAJ3 entry or part of it limits assumed): as the sequence (Q15116 25-170) above, with D2E, P10A, V19L, T35A, Q75R, T144A counted along it
# Experimental: as §1
Binder,Kd [1] [nM],koff [1] [s⁻¹],kon [1] [M⁻¹ s⁻¹],Kd [2] [nM],koff [2] [s⁻¹],kon [2] [M⁻¹ s⁻¹],Kd [3] [nM],koff [3] [s⁻¹],kon [3] [M⁻¹ s⁻¹]
"AP17R1-2H2-Z1 (VHH, also called the humanized AP17R1-2H2; not shown: his- and c-Myc-tag from vector pETbac) VHH: QVQLVESGGGVVQPGGSLRLSCAASDSIDSLVNMGWYRQAPGKQRELVALIANYITHYADFVKGRFTISRDNSKNTLYLQMNSLRAEDTAVYYCYARNIIVDYWGQGTLVTVSS",12.7,0.00392,307000,66.2,0.0136,205000,36.4,0.00863,237000
"AP17R1-2H2-Z1-R1-4D8 (VHH, not shown: his- and c-Myc-tag from vector pETbac) VHH: QVQLVESGGGVVQPGGSLRLSCAASDSIQSLVNMGWYRQAPGKQRELVALIANYITHYADFVKGRFTISRDNSKNTLYLQMNSLRAEDTAVYYCYARNIIVDYWGQGTLVTVSS",9.49,0.00396,417000,33.7,0.00955,284000,26,0.00833,320000
"AP17R1-2H2-Z1-R1-4B2 (VHH, not shown: his- and c-Myc-tag from vector pETbac) VHH: QVQLVESGGGVVQPGGSLRLSCAASDSISSLVNMGWYRQAPGKQRELVALIANYITHYADFVKGRFTISRDNSKNTLYLQMNSLRAEDTAVYYCYARNIIVDYWGQGTLVTVSS",9.19,0.00413,450000,34.6,0.0101,292000,25.5,0.00879,345000
"AP17R1-2H2-Z1-R1-14A1 (VHH, not shown: his- and c-Myc-tag from vector pETbac) VHH: QVQLVESGGGVVQPGGSLRLSCAASDSIDSLVNMGWYRQAPGKQRELVALIATYITHYADFVKGRFTISRDNSKNTLYLQMNSLRAEDTAVYYCYARNIIVDYWGQGTLVTVSS",2.06,0.00112,543000,12.3,0.0047,381000,5.04,0.00213,424000
"AP17R1-2H2-Z1-R1-6E1 (VHH, not shown: his- and c-Myc-tag from vector pETbac) VHH: QVQLVESGGGVVQPGGSLRLSCAASDSIDSMVNMGWYRQAPGKQRELVALIANYITHYADFVKGRFTISRDNSKNTLYLQMNSLRAEDTAVYYCYARNIIVDYWGQGTLVTVSS",7.48,0.00328,439000,50.8,0.0146,287000,22.1,0.00754,341000

# The remaining lines, values ahead:
Kd [1] [nM],koff [1] [s⁻¹],kon [1] [M⁻¹ s⁻¹],Kd [2] [nM],koff [2] [s⁻¹],kon [2] [M⁻¹ s⁻¹],Kd [3] [nM],koff [3] [s⁻¹],kon [3] [M⁻¹ s⁻¹],Binder
3.28,0.00135,411000,7.8,0.00218,280000,8.98,0.00277,309000,"AP17R1-2H2-Z1-R1-14F1 (VHH, not shown: his- and c-Myc-tag from vector pETbac) VHH: QVQLVESGGGVVQPGGSLRLSCAASDSIDSLVNMGWYRQAPGKQRELVALIAYYITHYADFVKGRFTISRDNSKNTLYLQMNSLRAEDTAVYYCYARNIIVDYWGQGTLVTVSS"
5.09,0.00249,489000,17.3,0.00596,344000,13.2,0.00484,366000,"AP17R1-2H2-Z1-R1-14B3 (VHH, not shown: his- and c-Myc-tag from vector pETbac) VHH: QVQLVESGGGVVQPGGSLRLSCAASDSIDSLVNMGWYRQAPGKQRELVALIARYITHYADFVKGRFTISRDNSKNTLYLQMNSLRAEDTAVYYCYARNIIVDYWGQGTLVTVSS"
2.35,0.00109,465000,27.1,0.00732,270000,7.18,0.00247,344000,"AP17R1-2H2-Z1-R1-14F3 (VHH, not shown: his- and c-Myc-tag from vector pETbac) VHH: QVQLVESGGGVVQPGGSLRLSCAASDSIDSLVNMGWYRQAPGKQRELVALIAWYITHYADFVKGRFTISRDNSKNTLYLQMNSLRAEDTAVYYCYARNIIVDYWGQGTLVTVSS"
6.79,0.00282,416000,42.5,0.0118,277000,19.2,0.00624,325000,"AP17R1-2H2-Z1-R1-30D3 (VHH, not shown: his- and c-Myc-tag from vector pETbac) VHH: QVQLVESGGGVVQPGGSLRLSCAASDSIDSLVNMGWYRQAPGKQRELVALIANYITHYADFVKGRFTISRDNSKNTLYLQMNSLRAEDTAVYYCYARNIIEDYWGQGTLVTVSS"
7.01,0.00298,425000,39.1,0.0108,277000,20,0.00646,323000,"AP17R1-2H2-Z1-R1-29B6 (VHH, not shown: his- and c-Myc-tag from vector pETbac) VHH: QVQLVESGGGVVQPGGSLRLSCAASDSIDSLVNMGWYRQAPGKQRELVALIANYITHYADFVKGRFTISRDNSKNTLYLQMNSLRAEDTAVYYCYARNIYVDYWGQGTLVTVSS"
8.54,0.00347,406000,55.8,0.0148,264000,25.7,0.00817,318000,"AP17R1-2H2-Z1-R1-29B2 (VHH, not shown: his- and c-Myc-tag from vector pETbac) VHH: QVQLVESGGGVVQPGGSLRLSCAASDSIDSLVNMGWYRQAPGKQRELVALIANYITHYADFVKGRFTISRDNSKNTLYLQMNSLRAEDTAVYYCYARNIRVDYWGQGTLVTVSS"
8.56,0.00331,387000,33.7,0.00894,265000,24.6,0.00745,302000,"AP17R1-2H2-Z1-R1-27A2 (VHH, not shown: his- and c-Myc-tag from vector pETbac) VHH: QVQLVESGGGVVQPGGSLRLSCAASDSIDSLVNMGWYRQAPGKQRELVALIANYITHYADFVKGRFTISRDNSKNTLYLQMNSLRAEDTAVYYCYARSIIVDYWGQGTLVTVSS"

# Reference: patent US20240301067A1 (WUXI BIOLOGICS IRELAND, published 2024)
